This is an account of results in paper doi:10.1101/2020.02.28.970301, “Picomolar affinity antagonist and sustained signaling agonist peptide ligands for the adrenomedullin and calcitonin gene-related peptide receptors” (bioRxiv, 2020).

The assay addresses T1, CLR ECD (29-144) as it stands in MBP-RAMP2.55-140[L106R]-(GSA)3-CLR.29-144-H6 (human, UniProt Q16602 29-144).
T1 construct: calcitonin receptor-like receptor (CLR), human, extracellular domain, residues 29-144; joined to m5 on one chain by the (GSA)3 linker in the crystallised fusion m4; source: E. coli, purified (as part of the fusion m4); not shown: His6, C-terminal, kept
The assay can be described thus: crystal structure; bacterially expressed MBP-RAMP2 ECD-(GSA)3-CLR ECD mixed with peptide 1:1.2; hanging drop, 20% PEG MME 5000, 0.1 M sodium HEPES pH 8.2, 150 mM sodium formate, 3% DMSO; 1.83 Å. Particulars: both partners purified.

T1 sequence (Q16602 29-144, stated change not applied): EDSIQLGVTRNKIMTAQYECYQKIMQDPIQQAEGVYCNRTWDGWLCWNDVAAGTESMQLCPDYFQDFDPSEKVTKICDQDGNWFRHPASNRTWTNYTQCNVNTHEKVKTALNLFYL

B1: RAMP2 ECD (55-140, L106R) as it stands in MBP-RAMP2.55-140[L106R]-(GSA)3-CLR.29-144-H6 (domain or fragment, human, UniProt O60895 55-140, looked up)
chain: GGTVKNYETAVQFCWNHYKDQMDPIEKDWCDWAMISRPYSTLRDCLEHFAERFDLGFPNPLAERIIFETHQIHFANCSLVQPTFSD
notes: receptor activity-modifying protein 2 (RAMP2), human, extracellular domain, residues 55-140; joined to m6 on one chain by the (GSA)3 linker in the crystallised fusion m4; source: E. coli, purified (as part of the fusion m4); not shown: MBP, N-terminal, kept
In the case of B1, the binding result is reported as “binds”.
